In article PMC6270235, “A Macrocyclic Peptide that Serves as a Cocrystallization Ligand and Inhibits the Function of a MATE Family Transporter” (Molecules, 2013):
Bridge positions count the residues as written; N and C are the ends.

Target: T1, Pyrococcus furiosus multidrug and toxic compound extrusion (PfMATE) transporter, wild type, His6-tagged, … (Pyrococcus furiosus, UniProt Q8U2X0 1-461)
T1 construct: PfMATE, MATE family transporter of Pyrococcus furiosus, wild type; Held in HEPES-buffered saline with 0.1% Cymal-6; also called His-tagged PfMATE; source: prepared according to literature [29]; not shown: His6, C-terminal, kept
T1 sequence (looked up): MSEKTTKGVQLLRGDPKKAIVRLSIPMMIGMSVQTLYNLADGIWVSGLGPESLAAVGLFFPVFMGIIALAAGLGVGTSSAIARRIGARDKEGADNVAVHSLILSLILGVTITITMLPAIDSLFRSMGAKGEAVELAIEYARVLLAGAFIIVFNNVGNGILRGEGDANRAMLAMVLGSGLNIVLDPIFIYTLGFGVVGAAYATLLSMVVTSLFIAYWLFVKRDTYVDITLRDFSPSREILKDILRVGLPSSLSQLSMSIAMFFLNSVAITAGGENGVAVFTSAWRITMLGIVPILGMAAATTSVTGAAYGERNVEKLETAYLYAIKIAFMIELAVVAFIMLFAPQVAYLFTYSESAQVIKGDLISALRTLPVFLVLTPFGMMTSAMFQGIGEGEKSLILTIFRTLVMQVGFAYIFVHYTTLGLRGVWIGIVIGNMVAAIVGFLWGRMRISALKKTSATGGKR
Assay: mRNA display selection round with competitor; c-Round 6: 32 µM mRNA-free synthetic MaL6 in the buffer of the binding step, 37 °C, His6-PfMATE on magnetic beads, libraries from Round 5; recovery by real-time PCR
Conditions: both partners purified

B1: MaL6, chemically synthesized thioether-macrocyclic peptide, not conjugated to mRNA, with an additional C-terminal glycine-carboxamide (peptide)
peptide: {CH2CO}-FTFRYSPSLYTWFLFPCG-NH2
modifications: thioether N-17 (inferred)
notes: AcF = N-chloroacetyl-L-phenylalanine; selected from the LF-library by RaPID; additional C-terminal glycine-carboxamide; also called chemically synthesized MaL6; mRNA-free MaL6; source: synthetic peptide, HPLC purified
B1: binds.
